Blank lines part the entries; values can stand above or below the substance they belong to.
Experiments:
[1] = molecular target: bovine Rho-kinase (bovine)
[2] = molecular target: bovine Rho-kinase (bovine); remark: listed apart in the source
[3] = molecular target: bovine Rho-kinase (bovine); remark: listed apart in the source
[4] = molecular target: intact myosin (chicken)
[5] = molecular target: T1, myosin light chain (chicken) (UniProt P02612)
T1 sequence: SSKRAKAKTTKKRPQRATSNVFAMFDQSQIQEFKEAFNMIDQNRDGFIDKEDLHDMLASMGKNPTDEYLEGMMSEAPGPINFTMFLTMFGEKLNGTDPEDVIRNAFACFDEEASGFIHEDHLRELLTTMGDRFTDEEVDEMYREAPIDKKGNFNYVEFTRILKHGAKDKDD

myosin light chain kinase, sequence (P11799 935-1906 limits assumed): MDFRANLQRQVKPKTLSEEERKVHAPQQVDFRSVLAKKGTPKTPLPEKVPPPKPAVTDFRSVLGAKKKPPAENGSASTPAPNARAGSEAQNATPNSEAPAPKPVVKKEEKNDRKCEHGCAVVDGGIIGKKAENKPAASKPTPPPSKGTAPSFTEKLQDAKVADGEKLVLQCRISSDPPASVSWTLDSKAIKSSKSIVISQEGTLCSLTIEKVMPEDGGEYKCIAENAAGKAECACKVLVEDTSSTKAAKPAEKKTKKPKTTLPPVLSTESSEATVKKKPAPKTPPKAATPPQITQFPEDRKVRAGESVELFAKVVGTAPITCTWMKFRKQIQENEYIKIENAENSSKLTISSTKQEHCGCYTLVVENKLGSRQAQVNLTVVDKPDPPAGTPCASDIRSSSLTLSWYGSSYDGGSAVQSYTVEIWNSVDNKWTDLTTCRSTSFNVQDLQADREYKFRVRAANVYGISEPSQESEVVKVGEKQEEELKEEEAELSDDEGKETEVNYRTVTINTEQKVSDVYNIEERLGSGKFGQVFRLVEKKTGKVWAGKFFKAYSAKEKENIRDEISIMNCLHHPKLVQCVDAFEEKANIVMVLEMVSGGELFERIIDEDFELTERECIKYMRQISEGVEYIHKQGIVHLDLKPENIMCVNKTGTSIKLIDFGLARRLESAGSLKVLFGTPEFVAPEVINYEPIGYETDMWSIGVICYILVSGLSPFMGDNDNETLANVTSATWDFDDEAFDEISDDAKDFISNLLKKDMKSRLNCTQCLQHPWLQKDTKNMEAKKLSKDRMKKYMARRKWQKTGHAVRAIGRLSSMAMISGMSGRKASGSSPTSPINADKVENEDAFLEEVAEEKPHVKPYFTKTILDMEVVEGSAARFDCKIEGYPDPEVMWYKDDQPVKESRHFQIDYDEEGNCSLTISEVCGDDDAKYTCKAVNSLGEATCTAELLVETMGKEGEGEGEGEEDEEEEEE

phosphorylation of MBS-C by bovine Rho-kinase [1]: 5 times
phosphorylation of rat myosin-binding subunit by bovine Rho-kinase [2]: 15 times
autophosphorylation of bovine Rho-kinase [3]: 2 times
Substance: GTPγS·GST-RhoA (from UniProt P61586)

phosphorylation of the myosin light chain of intact myosin (mol of phosphate into 1 mol) [4]: 1
apparent Km for myosin light chain, in the absence of GTPγS·GST-RhoA [5]: 12.6 µM
apparent Km for myosin light chain, in the presence of GTPγS·GST-RhoA [5]: 2.6 µM
Substance: bovine Rho-kinase (enzyme)

apparent Km for myosin light chain [5]: 52.1 µM
Substance: myosin light chain kinase (from UniProt P11799-2) (enzyme)

Source: US5906819
